The results in this text go back to IntAct's records for PubMed 17255092.

B1: SWI/SNF complex subunit SMARCC1 (Mus musculus), P97496 (parent)
chain: MAATAGGGPGAAAGAVGAGGAAAASGLAVYRRKDGGPASKFWESPDTVSQLDSVRVWLGKHYKKYVHADAPTNKTLAGLVVQLLQFQEDAFGKHVTNPAFTKLPAKCFMDFKAGGTLCHILGAAYKYKNEQGWRRFDLQNPSRMDRNVEMFMNIEKTLVQNNCLTRPNIYLIPDIDLKLANKLKDIIKRHQGTFTDEKSKASHHIYPYPSSQEDEEWLRPVMRRDKQVLVHWGFYPDSYDTWVHSNDVDAEIEDAPIPEKPWKVHVKWILDTDVFNEWMNEEDYEVDENRKPVSFRQRISTKNEEPVRSPERRDRKASANSRKRKPSPSPPPPTATESRKKSGKKGQASLYGKRRSQKEEDEQEDLTKDMEDPTPVPNIEEVVLPKNVNPKKDSENTPVKGGTVADLDEQDEEAVTTGGKEDEDPSKGDPSRSVDPGEDNVTEQTNHIIIPSYASWFDYNCIHVIERRALPEFFNGKNKSKTPEIYLAYRNFMIDTYRLNPQEYLTSTACRRNLTGDVCAVMRVHAFLEQWGLVNYQVDPESRPMAMGPPPTPHFNVLADTPSGLVPLHLRSPQVPAAQQMLNFPEKNKEKPIDLQNFGLRTDIYSKKTLAKSKGASAGREWTEQETLLLLEALEMYKDDWNKVSEHVGSRTQDECILHFLRLPIEDPYLENSDASLGPLAYQPVPFSQSGNPVMSTVAFLASVVDPRVASAAAKAALEEFSRVREEVPLELVEAHVKKVQEAARASGKVDPTYGLESSCIAGTGPDEPEKLEGSEEEKMETDPDGQQPEKAENKVENESDEGDKIQDRENEKNTEKEQDSDVSEDVKPEEKENEENKELTDTCKERESDAGKKKVEHEISEGNVATAAAAALASAATKAKHLAAVEERKIKSLVALLVETQMKKLEIKLRHFEELETIMDREKEALEQQRQQLLTERQNFHMEQLKYAELRARQQMEQQQQHGQTPQQAHQHTGGPGMAPLGATGHPGMMPHQQPPPYPLMHHQMPPPHPPQPGQIPGPGSMMPGQPMPGRMIPAVAANIHPTGSGPTPPGMPPMPGNILGPRVPLTAPNGMYPPPPQQQQPPPPADGVPPPPAPGPPASATP

The variants in the first experiment derive from B1. The following applies: with snf5_mouse Smarcb1, Q9Z0H3.
Chain of snf5_mouse Smarcb1, Q9Z0H3 (Q9Z0H3 whole entry): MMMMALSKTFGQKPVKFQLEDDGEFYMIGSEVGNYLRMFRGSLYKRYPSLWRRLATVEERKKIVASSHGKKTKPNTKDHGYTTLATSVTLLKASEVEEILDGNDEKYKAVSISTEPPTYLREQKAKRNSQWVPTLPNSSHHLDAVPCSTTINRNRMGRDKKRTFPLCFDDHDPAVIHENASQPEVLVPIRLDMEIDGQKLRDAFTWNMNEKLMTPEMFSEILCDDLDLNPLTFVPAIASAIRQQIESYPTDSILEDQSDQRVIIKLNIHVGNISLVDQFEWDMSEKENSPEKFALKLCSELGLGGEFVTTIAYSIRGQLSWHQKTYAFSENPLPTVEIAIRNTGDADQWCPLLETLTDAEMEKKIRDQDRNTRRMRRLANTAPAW
As to N535A, the “effect of a mutation on the interaction” value is on record as “decreasing interaction”. In the case of L533A;N535A, the “effect of a mutation on the interaction” value is listed as “disrupting interaction”. The same measure, in the same setting: under L533A stands “decreasing interaction”.

The variants in another experiment derive from B1. The following applies: with snf5_mouse Smarcb1, Q9Z0H3. This is another data set of the same source.
As to L533A;N535A, the “effect of a mutation on the interaction” value is listed as “disrupting interaction strength”.
